Key:
[1] = biological target: SARS-CoV-2 spike receptor binding domain with C-terminal 3xFlag tag (RBD-3xFlag) (SARS-CoV-2) (UniProt P0DTC2)
[2] = biological target: SARS-CoV-2 spike receptor binding domain with C-terminal 3xFlag tag (RBD-3xFlag) (SARS-CoV-2) (UniProt P0DTC2); remark: listed apart in the source

Substance: VHH72
- heated/non heated ratio of ELISA reading [1]: 0.33
- ELISA A450 [2]: 0.287 A450

— patent US20230303666A1
